Test [1] addresses T1, recombinant human IL1RAP ECD (human, UniProt Q9NPH3 21-367).
T1 construct: His-tagged; also called hIL1RAP-ECD; rhuIL1RAP
T1 sequence: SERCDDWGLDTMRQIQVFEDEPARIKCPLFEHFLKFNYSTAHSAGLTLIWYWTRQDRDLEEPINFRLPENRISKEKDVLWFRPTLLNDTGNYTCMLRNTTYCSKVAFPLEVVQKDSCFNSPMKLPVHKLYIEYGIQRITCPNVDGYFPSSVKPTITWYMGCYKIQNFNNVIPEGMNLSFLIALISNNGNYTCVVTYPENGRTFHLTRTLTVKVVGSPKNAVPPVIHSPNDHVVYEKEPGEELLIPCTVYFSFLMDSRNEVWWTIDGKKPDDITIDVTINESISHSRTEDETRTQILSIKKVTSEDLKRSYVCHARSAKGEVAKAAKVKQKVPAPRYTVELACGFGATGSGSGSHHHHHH
In words: SPR (ProteOn). The method, then:
The rates of IL1RAP ECD association and dissociation were measured for each variant. The biosensor surface was prepared by covalently coupling Goat anti-Human IgG (Fc) to the surface of a GLC chip (BioRad) using the manufacturer instructions for amine-coupling chemistry. […] The RU immobilized also included a goat anti-mouse Fc antibody that was added to capture other antibodies not included in the ones reported here. Since the mixture was 1:1 about 50% of these RU immobilized are expected to be goat anti-human Fc. The kinetic experiments were performed at 25° C. in running buffer (PBS pH 7.4, 0.005% P20, 3 mM EDTA). […] (1:3) serial dilutions of human IL1RAP ECD, starting at 400 nM were prepared in running buffer. […] The reference spots (Goat anti-Human IgG (Fc)-modified surface) containing no candidate captured were used as a reference surface. Capture of mAb was followed by a 3 minute injection (association phase) of antigen at 40 μL/min, followed by 10 minutes of buffer flow (dissociation phase). […] Data was processed on the instrument software. Double reference subtraction of the data was performed by subtracting the curves generated by buffer injection from the reference-subtracted curves for analyte injections. Kinetic analysis of the data was performed using 1:1 Langmuir binding model with group fit.

The target in test [2] is T2, recombinant cyno IL1RAP ECD (cynomolgus monkey, UniProt P59822 21-367 (rhesus entry)).
T2 construct: also called rcynoIL1RAP
T2 sequence: T1 sequence with L183F, T273P, K326T
Briefly: recombinant protein.

Test [3] concerns the target T1, recombinant human IL1RAP ECD. Briefly: SPR, summary. (In general: SPR reads the build-up and loss of mass on a sensor chip optically.)
For test [4], the target named is T3, mouse IL1RAP ECD displayed on HEK-293F cells (pDisplay) (mouse, UniProt Q61730 21-367).
T3 sequence: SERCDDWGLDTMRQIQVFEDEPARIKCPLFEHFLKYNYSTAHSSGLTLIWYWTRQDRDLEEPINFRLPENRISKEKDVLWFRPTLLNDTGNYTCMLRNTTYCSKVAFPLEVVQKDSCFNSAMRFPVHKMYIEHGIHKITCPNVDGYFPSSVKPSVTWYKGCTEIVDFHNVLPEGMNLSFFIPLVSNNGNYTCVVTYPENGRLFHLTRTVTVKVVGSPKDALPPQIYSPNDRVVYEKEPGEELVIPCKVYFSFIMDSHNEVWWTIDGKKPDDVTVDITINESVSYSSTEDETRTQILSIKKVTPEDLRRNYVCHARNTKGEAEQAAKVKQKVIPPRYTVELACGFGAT
In words: HEK-293F cells (MSD).

Test [5] has as its target T4, rat IL1RAP ECD displayed on HEK-293F cells (pDisplay) (rat, UniProt Q63621 21-367).
T4 sequence: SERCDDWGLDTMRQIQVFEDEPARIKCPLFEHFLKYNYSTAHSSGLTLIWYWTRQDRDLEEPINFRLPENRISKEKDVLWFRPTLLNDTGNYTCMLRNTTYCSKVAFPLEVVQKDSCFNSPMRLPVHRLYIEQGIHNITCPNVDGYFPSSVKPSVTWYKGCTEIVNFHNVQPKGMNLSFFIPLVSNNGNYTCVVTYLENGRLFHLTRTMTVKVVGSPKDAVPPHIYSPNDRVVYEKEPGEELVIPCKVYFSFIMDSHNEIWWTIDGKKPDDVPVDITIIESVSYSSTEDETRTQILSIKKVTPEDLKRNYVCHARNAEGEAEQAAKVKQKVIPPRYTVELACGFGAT
In words: HEK-293F cells (MSD).

Test [6] addresses T5, cyno IL1RAP ECD displayed on HEK-293F cells (pDisplay) (cynomolgus monkey, UniProt P59822 21-367 (rhesus entry)).
T5 sequence: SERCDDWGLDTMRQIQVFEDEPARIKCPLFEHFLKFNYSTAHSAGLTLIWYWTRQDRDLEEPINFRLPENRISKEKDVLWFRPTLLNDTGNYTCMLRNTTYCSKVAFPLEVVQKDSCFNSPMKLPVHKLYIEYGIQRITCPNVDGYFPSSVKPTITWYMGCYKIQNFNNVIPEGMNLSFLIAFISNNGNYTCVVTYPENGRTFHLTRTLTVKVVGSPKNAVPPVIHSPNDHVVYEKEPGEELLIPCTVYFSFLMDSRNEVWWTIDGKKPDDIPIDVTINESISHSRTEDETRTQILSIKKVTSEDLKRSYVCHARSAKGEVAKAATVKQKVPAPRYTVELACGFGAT
Briefly: HEK-293F cells (MSD).

Test [7] deals with T6, human IL1RAP on cells (endogenous) (human, UniProt Q9NPH3 21-570).
T6 sequence (looked up): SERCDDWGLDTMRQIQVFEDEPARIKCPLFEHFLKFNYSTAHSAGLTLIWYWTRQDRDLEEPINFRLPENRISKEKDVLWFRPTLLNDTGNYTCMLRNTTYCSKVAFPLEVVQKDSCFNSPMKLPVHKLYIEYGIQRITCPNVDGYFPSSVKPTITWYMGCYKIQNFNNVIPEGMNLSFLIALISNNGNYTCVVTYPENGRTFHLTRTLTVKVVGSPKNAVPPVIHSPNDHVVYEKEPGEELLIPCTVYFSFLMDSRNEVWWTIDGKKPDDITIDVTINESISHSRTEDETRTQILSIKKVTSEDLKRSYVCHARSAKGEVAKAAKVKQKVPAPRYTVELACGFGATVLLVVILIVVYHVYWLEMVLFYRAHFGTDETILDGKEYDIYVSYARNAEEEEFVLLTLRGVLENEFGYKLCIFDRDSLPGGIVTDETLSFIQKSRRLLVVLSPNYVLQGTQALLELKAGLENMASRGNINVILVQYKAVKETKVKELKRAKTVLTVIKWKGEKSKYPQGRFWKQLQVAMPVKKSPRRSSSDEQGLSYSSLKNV
Briefly: cell-based or functional assay.

Test [8] concerns the target T1, recombinant human IL1RAP ECD. In words: SPR, summary. This is another data set of the same source.
Test [9] addresses T2, recombinant cyno IL1RAP ECD. Briefly: SPR, summary.
Test [10] deals with T1, recombinant human IL1RAP ECD. In words: SPR; human KD over cyno KD.
The target of test [11] is T2, recombinant cyno IL1RAP ECD. Briefly: SPR.
Test [12] concerns the target T1, recombinant human IL1RAP ECD. In words: SPR.
For test [13], the target named is T2, recombinant cyno IL1RAP ECD. Briefly: SPR. The source holds these as a separate data set.
The target in test [14] is T1, recombinant human IL1RAP ECD. Briefly: SPR. This is another data set of the same source.
The target of test [15] is T3, mouse IL1RAP ECD displayed on HEK-293F …. In words: Murine Binder, summary.

Where a chain is given by its changes, count along the chain named.

What is called Kd is the free concentration of one partner at which half of the binding sites on the other are occupied at equilibrium, for simple one-to-one binding. As a reminder, the koff is the first-order rate constant of dissociation. One may read the kon as a measure of how fast the partners come together.

B1: IAPB17 (antibody, human IgG4 S228P, kappa, F234A L235A, V domains shown)
VH: QVQLVQSGAEVKKPGSSVKVSCKASGGTFSSYAISWVRQAPGQGLEWMGGIIPIFGNANYAQKFQGRVTITADESTSTAYMELSSLRSEDTAVYYCARTIIYLDYVHILDYWGQGTLVTVSS
VL: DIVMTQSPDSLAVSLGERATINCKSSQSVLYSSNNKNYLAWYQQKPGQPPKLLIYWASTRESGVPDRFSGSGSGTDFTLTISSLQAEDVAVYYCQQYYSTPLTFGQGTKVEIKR
notes: IgG4-PAA; whole chains
Consider B1, for which the Kd in test [1] and in test [3] was 8.51 nM throughout. The koff in test [1] was found to be 0.00719 s⁻¹. In addition, the kon in test [1] was determined as 844000 M⁻¹ s⁻¹. For the same molecule, the binding result in test [2], in [4], in test [5] and in test [6] was “binds” in each case.

B2: IAPB09 (antibody, human IgG4 S228P, kappa, F234A L235A, V domains shown)
VH: QVQLVQSGAEVKKPGSSVKVSCKASGGTFSSYAISWVRQAPGQGLEWMGWISPIFGTANYAQKFQGRVTITADESTSTAYMELSSLRSEDTAVYYCARRYDNFARSGDLDYWGQGTLVTVSS
VL: not shown
notes: IgG4-PAA; whole chains; also called IAPB9
Regarding B2, the Kd in [1] and in test [3] was 6.59 nM each time. Moreover, in test [1], the off-rate (koff) came to 0.00379 s⁻¹. Besides, the kon in test [1] was 574000 M⁻¹ s⁻¹. The binding result in test [2], in [4], in test [5] and in test [6] was “binds” throughout.

B3: IC3B2 (bispecific antibody, human IgG4 S228P, kappa, lambda, F234A L235A)
heavy 1: EVQLVESGGGLVQPGGSLKLSCAASGFTFNTYAMNWVRQASGKGLEWVGRIRSKYNAYATYYAASVKGRFTISRDDSKNTAYLQMNSLKTEDTAVYYCTRHGNFGNSYVSWFAYWGQGTLVTVSSASTKGPSVFPLAPCSRSTSESTAALGCLVKDYFPEPVTVSWNSGALTSGVHTFPAVLQSSGLYSLSSVVTVPSSSLGTKTYTCNVDHKPSNTKVDKRVESKYGPPCPPCPAPEAAGGPSVFLFPPKPKDTLMISRTPEVTCVVVDVSQEDPEVQFNWYVDGVEVHNAKTKPREEQFNSTYRVVSVLTVLHQDWLNGKEYKCKVSNKGLPSSIEKTISKAKGQPREPQVYTLPPSQEEMTKNQVSLTCLVKGFYPSDIAVEWESNGQPENNYKTTPPVLDSDGSFLLYSKLTVDKSRWQEGNVFSCSVMHEALHNHYTQKSLSLSLGK
light 1: QAVVTQEPSLTVSPGGTVTLTCRSSTGAVTTSNYANWVQQKPGQAPRGLIGGTNKRAPGTPARFSGSLLGGKAALTLSGAQPEDEAEYYCALWYSNLWVFGGGTKLTVLGQPKAAPSVTLFPPSSEELQANKATLVCLISDFYPGAVTVAWKADSSPVKAGVETTTPSKQSNNKYAASSYLSLTPEQWKSHRSYSCQVTHEGSTVEKTVAPTECS
heavy 2: not shown
light 2: not shown
notes: IgG4-PAA, Fab arm exchange; also called IAPB38 x CD3B220
Regarding B3, in test [7], the “EC50, T-cell mediated cytotoxicity” value came to 0.077 nM. For the same molecule, the Kd in [8] was found to be 7.36 nM; in test [9], 16.9 nM; in [11], 16.9 nM; in test [12], 7.36 nM; in test [13], 16.9 nM; in test [14], 7.36 nM. For the same molecule, the “Hu/Cyno KD Ratio” value in test [10] was determined as 0.4. The koff in test [11] turned out to be 0.00223 s⁻¹; in test [14] it was 0.000827 s⁻¹. The figures for the kon in test [11] and in test [14] were 132000 M⁻¹ s⁻¹ and 112000 M⁻¹ s⁻¹, respectively. Moreover, the binding result in [15] is recorded as “binds”.

B4: IC3B10 (bispecific antibody, human IgG4 S228P, kappa, lambda, F234A L235A)
heavy 1: B3 heavy 1
light 1: B3 light 1
heavy 2: not shown
light 2: not shown
notes: IgG4-PAA, Fab arm exchange
Turning to B4, in test [7], the “EC50, T-cell mediated cytotoxicity” value was 0.124 nM. For the same molecule, the Kd in [8], in test [12] and in [14] was 4.77 nM in each case. The binding result in test [15] is listed as “binds”.

B5: IC3B11 (bispecific antibody, human IgG4 S228P, kappa, lambda, F234A L235A)
heavy 1: B3 heavy 1
light 1: B3 light 1
heavy 2: not shown
light 2: not shown
notes: IgG4-PAA, Fab arm exchange; also called IAPB9 x CD3B220
As for B5, in test [7], the “EC50, T-cell mediated cytotoxicity” value amounted to 1.32 nM. Besides, the dissociation constant (Kd) in test [8] is 4.56 nM; in test [9], 5.27 nM; in [11] it was 5.27 nM; in test [12], 4.56 nM; in test [13], 5.27 nM; in test [14], 4.56 nM. Further, the “Hu/Cyno KD Ratio” value in test [10] was 0.9. Also, the koff in [11] came to 0.00409 s⁻¹; in test [14], 0.00354 s⁻¹. Moreover, the kon in [11] and in [14] was 776000 M⁻¹ s⁻¹ in each case. Moreover, in test [15], the binding result was “binds”.
